Series [1] concerns the target T1, CtTrl1-LIG WT (tRNA ligase LIG domain) (Chaetomium thermophilum (syn. …, UniProt G0S6G2 1-414)).
T1 sequence: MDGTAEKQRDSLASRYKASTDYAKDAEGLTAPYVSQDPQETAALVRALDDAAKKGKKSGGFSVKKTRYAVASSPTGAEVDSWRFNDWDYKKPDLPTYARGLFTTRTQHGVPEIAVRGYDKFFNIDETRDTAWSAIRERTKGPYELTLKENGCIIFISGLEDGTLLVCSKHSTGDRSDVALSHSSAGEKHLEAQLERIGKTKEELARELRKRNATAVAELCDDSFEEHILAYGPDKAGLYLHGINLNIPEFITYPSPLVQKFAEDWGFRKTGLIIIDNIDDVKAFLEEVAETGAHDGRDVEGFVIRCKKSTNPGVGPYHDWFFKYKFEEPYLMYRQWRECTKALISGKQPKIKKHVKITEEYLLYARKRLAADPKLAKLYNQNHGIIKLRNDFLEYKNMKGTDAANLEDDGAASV
As to the kind of experiment: X-ray crystallography.

Series [2] deals with T1, CtTrl1-LIG WT (tRNA ligase LIG domain). The experiment in a line: EMSA. (Mobility shift assays separate free from complexed probe on a gel.)
In a further series the target is T2, CtTrl1-LIG K148N (Chaetomium thermophilum (syn. …, UniProt G0S6G2 1-414, K148N)).
T2 sequence: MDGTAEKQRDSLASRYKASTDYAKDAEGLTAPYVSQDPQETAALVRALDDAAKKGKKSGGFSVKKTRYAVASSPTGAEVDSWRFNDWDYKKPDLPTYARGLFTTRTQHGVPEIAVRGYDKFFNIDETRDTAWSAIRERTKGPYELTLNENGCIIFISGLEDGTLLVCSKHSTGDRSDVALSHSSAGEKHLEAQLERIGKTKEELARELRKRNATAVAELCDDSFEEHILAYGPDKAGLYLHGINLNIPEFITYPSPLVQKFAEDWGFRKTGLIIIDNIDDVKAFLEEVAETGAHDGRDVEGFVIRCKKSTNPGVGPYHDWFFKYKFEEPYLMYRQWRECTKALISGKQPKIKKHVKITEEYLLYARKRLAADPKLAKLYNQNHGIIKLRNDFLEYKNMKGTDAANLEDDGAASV
The experiment in a line: EMSA.

B1: sctRNAPhe-3'exon-7nt (dsRNA)
RNA 1: AUCUGGA
RNA 2: AUCUGGA
modifications: 5'-phosphate; one strand 5'-adenylylated (AppRNA) in the crystal
Consider B1, for which the binding result in series [1] was “binds”.

B2: ASL-4U (structured_RNA)
RNA: AUCUGGAUUUUGCCAGACUGAAG
modifications: 5'-phosphate; terminal phosphate at 3' end (ordered as [Phos]; 2'-P form in the EMSA not stated)
In the case of B2, the binding result (in series [2]; with CtTrl1-LIG K148N) was “binds” each time.

These data come from publication doi:10.1101/2024.06.06.597711.
